Source: the supplement of paper PMC9170038

Tested on: MS2 coat protein
Assay: apparent KD of MS2 coat protein; designed switch direction (-1 OFF switch, 1 ON switch): -1; higher = weaker reporter binding
Summary of the method: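 An oligonucleotide input, 200 uM small-molecule ligand, or no input was present during titration of SNAP-549-labelled MS2 coat protein, which was doubled from 0.7 or 1.5 nM to 3 µM. Designed RNA switches had been transcribed on Illumina chips by stalled E. coli RNA polymerase. Apparent KD per design is the median over clusters of curves fitted to normalised cluster fluorescence.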

[1] = input ligand: microRNA oligo, concentration not stated
[2] = Eterna round: R95, input ligand: FMN 200 uM
[3] = Eterna round: R95, input ligand: microRNA oligo, concentration not stated
[4] = Eterna round: R95, input ligand: none

Sequence	apparent KD of MS2 coat protein (input ligand: FMN 200 uM)	apparent KD of MS2 coat protein [1]	apparent KD of MS2 coat protein (input ligand: none)	apparent KD of MS2 coat protein [2]	apparent KD of MS2 coat protein [3]	apparent KD of MS2 coat protein [4]
UUAAUUAAUUUAUUAGAUCCUCACAUGAGGAUCACCCAUGUGCAGGAUAUCAGCUCGUUUAGAGCUGAGAAGGGCACUAUAAAU [ExNG3/10-B2] (Eterna round: R96, puzzle: Exclusion NG 3)	24.6 nM	41.8 nM	38.1 nM	–	–	–
AUACCAUGCCGCCUAAUAGCUUUUUGCUCGUCUUAUAAAACAUGAGGAUCACCCAUGUAAAACAUGUGGCGUGACCC [Maridi] (Eterna round: R96, puzzle: Sensor v3, turn-off variant 2)	422 nM	52.9 nM	329 nM	–	–	–
CCUAGACAUGAGGAUCACCCAUGUGAGGAUAUGAUGCGAAUAAAGAAAGAAGAAAGCAUCAGAAGGCACAUAUG [Fiskers Ex 1 - 2] (puzzle: Exclusion 1)	–	–	–	130 nM	41.2 nM	49.4 nM
UAGUGUUACACAGGAUAUCGCCUCUUAUUACAUGAGGAUCACCCAUGUUUAGUUAGUUACAUGUACGAGAAGGGUGUUGUAGUU [JR_ExcNG2_Sub039] (Eterna round: R96, puzzle: Exclusion NG 2)	787 nM	681 nM	1010 nM	–	–	–
CCGGAACAUGAGGAUCACCCAUGUCAGGAUAUCUCAAAAUCGUCGAAAGACGAUAACAAGAGAAGGGACACCGG [Eli x1 4.30] (Eterna round: R97, puzzle: Exclusion 1)	20.9 nM	–	16.4 nM	–	–	–
CCAUAGGGAGGAUAUCCAAUAUAUGACAUGAGGAUCACCCAUGUUUCCACUCGUACCUCCGGAGAAGGCCCAUAAC [Ex5 #8] (Eterna round: R97, puzzle: Exclusion 5)	24.4 nM	–	21.4 nM	–	–	–
AGACACUGAGGAUAUACAUGAGGAUCACCCAUGUAUGGGAAAUACGAAUGUAUUAGUUGUAGAAGGUGGUGUCG [Eternabot (L1) Solution 10] (Eterna round: R97, puzzle: Exclusion 3)	183 nM	–	199 nM	–	–	–
UUCUUCUCUGUUAGGAUAUUCUCCGCAGAUGCCUGGAAGAAGGGACAUGAGGAUCACCCAUGUAGUGUAAGCUA [Eternabot (L2) Solution 58] (Eterna round: R97, puzzle: Brourd's mod of Exclusion 4)	40.6 nM	–	62.8 nM	–	–	–
UCAUACGGUGAGGAUAUCUCCGCUAAAGUGUGUAGAGAAGGCGCUACAUGAGGAUCACCCAUGUUUAUGGGCAG [Ex-6 Malc#12] (puzzle: Exclusion 6)	–	–	–	52.9 nM	347 nM	443 nM
UCAUACGGUGAGGAUAUCUCCGUUAAAGUAUGUAGAGAAGGCGCUACAUGAGGAUCACCCAUGUUUGUGGGCAG [Ex-6 Malc#10] (puzzle: Exclusion 6)	–	–	–	–	323 nM	–
UCAUGGAAGCAGGAUAUGCUUGUUUAAUUGUUUGCAGAAGGGCUAACAUGAGGAUCACCCAUGUAAGAGGUCUA [JR_E6_Sub063] (puzzle: Exclusion 6)	–	–	–	–	35.3 nM	–
AGUACUAACACGAGAGUGUUAGUACAAUAAGCUUGUGAAACAUGAGGAUCACCCAUGUCCUCAUAAGCUCGUCUUAU [salish99_TOv2_r3_029] (puzzle: Sensor v3, turn-off variant 2)	–	–	–	18.1 nM	949 nM	17.2 nM
GGGCCCGGAGGAUAUACAAUGGGCCCGGGAAACCGGGUUUUACAUGAGGAUCACCCAUGUAGAAGGCCGGGCCC [-42.8, -38.99 kcal A 24%, 5a,0] (Eterna round: R97, puzzle: Exclusion 2)	15.6 nM	–	14.6 nM	–	–	–
AGUACUAUCACGAAAGUGAUAGUACAAAAUAGCAAGUGAACAUGAGGAUCACCCAUGUCCUCAUUUGCUCGUCUUAU [Sensor 3 - 19] (puzzle: Sensor v3, turn-off variant 2)	–	–	–	15.1 nM	426 nM	14.2 nM
UAAAACAGAGGAUAUCGCUUGGUAAACAUGAGGAUCACCCAUGUGGUCUCGGUGGAUACCCGAGAAGGCUGAGCGU [Xeraisbece] (Eterna round: R97, puzzle: Exclusion 5)	19.5 nM	–	19 nM	–	–	–
GAAGAGUGAGGAUAUACAUGAGGAUCACCCAUGUUAACCUUCUACAGCAUGGACUCGAGUAGAAGGCGCCAAGA [Eternabot (Original) Solution 21] (Eterna round: R97, puzzle: Exclusion 3)	20.3 nM	–	25.8 nM	–	–	–
UUCGUGCAGCUUUGCUGUACGAGUACAUGAGGAUCACCCAUGUAGGAUAUGGUACGCUUUGCGUGCCAGAAGGACGUGCGUUAG [salish99_ExNG3_r04_002] (Eterna round: R96, puzzle: Exclusion NG 3)	73.4 nM	34.1 nM	42.1 nM	–	–	–

Sequence	apparent KD of MS2 coat protein (input ligand: FMN 200 uM)	apparent KD of MS2 coat protein [1]	apparent KD of MS2 coat protein (input ligand: none)	apparent KD of MS2 coat protein [2]	apparent KD of MS2 coat protein [3]	apparent KD of MS2 coat protein [4]
GUUAAGGUAGGAUAUACGAUAAUAUAGGGUAGAGAUAUAACACAUGAGGAUCACCCAUGUAGAAGGACCAAUUG [Mat - Exclusion 2 - Mod of my Tesla design - D55] (puzzle: Exclusion 2)	–	–	–	–	26.2 nM	–
CCGCUGUGAGGAUAUUAGUAGUAGUCAGAAAAGACUAUUACUGAGAAGGCACAUGAGGAUCACCCAUGUUGCGG [Mat - Exclusion 4 - Eli Mod - D48] (Eterna round: R97, puzzle: Exclusion 4)	33.9 nM	–	38.2 nM	–	–	–
UGCAUGUAAGGAUAUGCAUCCGCCAACGAACCGGCGGCACAGCAGAAGGUACAUGAGGAUCACCCAUGUGUCCC [Isonrian] (Eterna round: R96, puzzle: Exclusion 4)	357 nM	25 nM	29.8 nM	–	–	–
CUGACGGCAGGAUAUACAUGAGGAUCACCCAUGUAAAUUUUUCGUUUAACUUGAAUGUGUAGAAGGGCCCAACC [Ex3 #79] (Eterna round: R97, puzzle: Exclusion 3)	19.6 nM	–	21.5 nM	–	–	–
GCUAUGACUGUGAGGAUAUGGACCGGGCUCUCGGAUUAGAAGGCACAUGAGGAUCACCCAUGUGAUCACGUACU [Eternabot (L2) Solution 87] (Eterna round: R97, puzzle: Brourd's mod of Exclusion 4)	42.2 nM	–	27.5 nM	–	–	–
CCCGUGUUAGGAUAUACGGCACACCCGCCAGCGGGUAUAUAGUAGAAGGAACAUGAGGAUCACCCAUGUAUAGC [Sobiza] (puzzle: Exclusion 4)	–	–	–	–	15.6 nM	–
UUUAAACUUACAAUCUUCGCUGGCAUGCUUGUGCCAGCUACAUGAGGAUCACCCAUGUUUUUUGCUCGUCUUAUUCU [Usre] (puzzle: Sensor v3, turn-off variant 2)	–	–	–	23.5 nM	–	25.1 nM
UGGUGGAAGCAGGAUAUGCUUGUUUUAUUGAUUGCAGAAGGGCUAACAUGAGGAUCACCCAUGUAAGAGGUGUU [JR_E6_Sub055] (puzzle: Exclusion 6)	–	–	–	–	303 nM	–
GGUGCGUAUGUGAGGAUAUGCUGGUCCUUGGCUCGGCAGAAGGCACAUGAGGAUCACCCAUGUGGUGUCGUACA [salish99_Bmod_ex4_072] (puzzle: Brourd's mod of Exclusion 4)	–	–	–	–	73.5 nM	–
GGUCAGACGGUAGGAUAUCUAUAUCGAGUGACCCUUUCAUAACAUGAGGAUCACCCAUGUCGGUGGGAGAAGGGCCGUACGGCG [salish99_ExNG02_R04_007] (Eterna round: R96, puzzle: Exclusion NG 2)	62.5 nM	31.6 nM	42.2 nM	–	–	–
GGUCAGAUGGUAGGAUAUCCAUAUCGAGUGACCUUUUCAUAACAUGAGGAUCACCCAUGUCGGUGGGAGAAGGGCCGUACGGCG [salish99_ExNG02_R04_017] (Eterna round: R96, puzzle: Exclusion NG 2)	120 nM	79 nM	112 nM	–	–	–
CUGCUCCGUGUAGGAUAUGCGCGCACCACCCGCGCAGAAGGACAUGAGGAUCACCCAUGUAUGUUAUUAUCACGUGUGGCGCGC [Design 38] (Eterna round: R96, puzzle: Exclusion NG 1)	12.6 nM	11.1 nM	15.9 nM	–	–	–
UAUCCUCAAGUGAGGAUAUGACGGUCAAGACGCGUUCAGAAGGCACAUGAGGAUCACCCAUGUGAUAAAGGAAU [Eternabot (L2) Solution 38] (Eterna round: R97, puzzle: Brourd's mod of Exclusion 4)	91.7 nM	–	20.6 nM	–	–	–
AUCCGGCAUGUAGGAUAUGGAUCCGAUUAGGAUCCAGAAGGACAUGAGGAUCACCCAUGUACAUGUAAACAGUCAUCACCGGAC [salish99_ExNG1_r04_201] (Eterna round: R96, puzzle: Exclusion NG 1)	462 nM	50.2 nM	67.3 nM	–	–	–
AGUUGGCGAGGAUAUACAUGAGGAUCACCCAUGUGAGAGAAAAAAGUGAGGAAGAAAAGUAGAAGGCGCUGACC [salish99_ex3_r3_041] (puzzle: Exclusion 3)	–	–	–	245 nM	49.8 nM	81.8 nM
GUGAAACAUGAGGAUCACCCAUGUCAGGAUAUGCAUCCAGUUCACCUAUAAAGACGGUGUAGAAGGGACAAUAA [Eternabot (Original) Solution 7] (Eterna round: R97, puzzle: Exclusion 1)	22.4 nM	–	21.3 nM	–	–	–
ACAUGAGGAUCACCCAUGUCCGUCUGGUCUGUCUCGGCUGUCGAGGAUAUAGCCCGGUAUCCGCGCUAGAAGGUGGGAGUCGGC [Aenatbe mod 98] (Eterna round: R96, puzzle: Exclusion NG 3)	31.4 nM	28.9 nM	37.3 nM	–	–	–
